From doi:10.1101/2025.06.25.661518, “Structural insights into DNA annealing and recombination by herpesviral DNA-binding proteins ICP8 and BALF2” (bioRxiv, 2025)

What was measured:
[1] = biological target: the molecule itself; experiment: cryo-EM structure; ICP8 double filament reconstituted with linear dsDNA carrying long ssDNA tails (T4 polymerase-treated); single-particle analysis of filament segments, 3.2 Å; DNA could not be built into the map
[2] = biological target: the molecule itself; experiment: filament reconstitution seen by electron microscopy; protein incubated without DNA under the same conditions as the filament reconstitution; kind of microscopy not told

B1: ICP8, full-length (Herpes Simplex Virus 1 DNA-binding protein) (natural protein)
chain: METKPKTATTIKVPPGPLGYVYARACPSEGIELLALLSARSGDSDVAVAPLVVGLTVESGFEANVAVVVGSRTTGLGGTAVSLKLTPSHYSSSVYVFHGGRHLDPSTQAPNLTRLCERARRHFGFSDYTPRPGDLKHETTGEALCERLGLDPDRALLYLVVTEGFKEAVCINNTFLHLGGSDKVTIGGAEVHRIPVYPLQLFMPDFSRVIAEPFNANHRSIGEKFTYPLPFFNRPLNRLLFEAVVGPAAVALRCRNVDAVARAAAHLAFDENHEGAALPADITFTAFEASQGKTPRGGRDGGGKGAAGGFEQRLASVMAGDAALALESIVSMAVFDEPPTDISAWPLFEGQDTAAARANAVGAYLARAAGLVGAMVFSTNSALHLTEVDDAGPADPKDHSKPSFYRFFLVPGTHVAANPQVDREGHVVPGFEGRPTAPLVGGTQEFAGEHLAMLCGFSPALLAKMLFYLERCDGAVIVGRQEMDVFRYVADSNQTDVPCNLCTFDTRHACVHTTLMRLRARHPKFASAARGAIGVFGTMNSMYSDCDVLGNYAAFSALKRADGSETARTIMQETYRAATERVMAELETLQYVDQAVPTAMGRLETIITNREALHTVVNNVRQVVDREVEQLMRNLVEGRNFKFRDGLGEANHAMSLTLDPYACGPCPLLQLLGRRSNLAVYQDLALSQCHGVFAGQSVEGRNFRNQFQPVLRRRVMDMFNNGFLSAKTLTVALSEGAAICAPSLTAGQTAPAESSFEGDVARVTLGFPKELRVKSRVLFAGASANASEAAKARVASLQSAYQKPDKRVDILLGPLGFLLKQFHAAIFPNGKPPGSNQPNPQWFWTALQRNQLPARLLSREDIETIAFIKKFSLDYGAINFINLAPNNVSELAMYYMANQILRYCDHSTYFINTLTAIIAGSRRPPSVQAAAAWSAQGGAGLEAGARALMDAVDAHPGAWTSMFASCNLLRPVMAARPMVVLGLSISKYYGMAGNDRVFQAGNWASLMGGKNACPLLIFDRTRKFVLACPRAGFVCAASSLGGGAHESSLCEQLRGIISEGGAAVASSVFVATVKSLGPRTQQLQIEDWLALLEDEYLSEEMMELTARALERGNGEWSTDAALEVAHEAEALVSQLGNAGEVFNFGDFGCEDDNATPFGGPGAPGPAFAGRKRAFHGDDPFGEGPPDKKGDLTLDML
notes: also called full-length ICP8 form; source: insect cells, purified
binding result [1]: binds

B2: BALF2, DNA-binding protein of Epstein-Barr Virus (natural protein)
chain: MQGAQTSEDNLGSQSQPGPCGYIYFYPLATYPLREVATLGTGYAGHRCLTVPLLCGITVEPGFSINVKALHRRPDPNCGLLRATSYHRDIYVFHNAHMVPPIFEGPGLEALCGETREVFGYDAYSALPRESSKPGDFFPEGLDPSAYLGAVAITEAFKERLYSGNLVAIPSLKQEVAVGQSASVRVPLYDKEVFPEGVPQLRQFYNSDLSRCMHEALYTGLAQALRVRRVGKLVELLEKQSLQDQAKVAKVAPLKEFPASTISHPDSGALMIVDSAACELAVSYAPAMLEASHETPASLNYDSWPLFADCEGPEARVAALHRYNASLAPHVSTQIFATNSVLYVSGVSKSTGQGKESLFNSFYMTHGLGTLQEGTWDPCRRPCFSGWGGPDVTGTNGPGNYAVEHLVYAASFSPNLLARYAYYLQFCQGQKSSLTPVPETGSYVAGAAASPMCSLCEGRAPAVCLNTLFFRLRDRFPPVMSTQRRDPYVISGASGSYNETDFLGNFLNFIDKEDDGQRPDDEPRYTYWQLNQNLLERLSRLGIDAEGKLEKEPHGPRDFVKMFKDVDAAVDAEVVQFMNSMAKNNITYKDLVKSCYHVMQYSCNPFAQPACPIFTQLFYRSLLTILQDISLPICMCYENDNPGLGQSPPEWLKGHYQTLCTNFRSLAIDKGVLTAKEAKVVHGEPTCDLPDLDAALQGRVYGRRLPVRMSKVLMLCPRNIKIKNRVVFTGENAALQNSFIKSTTRRENYIINGPYMKFLNTYHKTLFPDTKLSSLYLWHNFSRRRSVPVPSGASAEEYSDLALFVDGGSRAHEESNVIDVVPGNLVTYAKQRLNNAILKACGQTQFYISLIQGLVPRTQSVPARDYPHVLGTRAVESAAAYAEATSSLTATTVVCAATDCLSQVCKARPVVTLPVTINKYTGVNGNNQIFQAGNLGYFMGRGVDRNLLQAPGAGLRKQAGGSSMRKKFVFATPTLGLTVKRRTQAATTYEIENIRAGLEAIISQKQEEDCVFDVVCNLVDAMGEACASLTRDDAEYLLGRFSVLADSVLETLATIASSGIEWTAEAARDFLEGVWGGPGAAQDNFISVAEPVSTASQASAGLLLGGGGQGSGGRRKRRLATVLPGLEV
notes: also called EBV BALF2; source: insect cells, purified
binding result [2]: binds
